The values that follow come from patent US20160115200A1, “New Use for JNK Inhibitor Molecules for Treatment of Various Diseases” (XIGEN INFLAMMATION LTD., priority 2013, published 2016).

Holding throughout (assay): kinase inhibition
Test [1] has as its target His-JNK3 (ref 14-501, Upstate) (UniProt P53779).
Test [2] has as its target His-JNK2 (ref 14-329, Upstate) (UniProt P45984).
Test [3] deals with His-JNK1 (ref 14-327, Upstate) (UniProt P45983).
Sequence of His-JNK1 (ref 14-327, Upstate) (P45983 other isoform, or with tags, fused parts or gaps): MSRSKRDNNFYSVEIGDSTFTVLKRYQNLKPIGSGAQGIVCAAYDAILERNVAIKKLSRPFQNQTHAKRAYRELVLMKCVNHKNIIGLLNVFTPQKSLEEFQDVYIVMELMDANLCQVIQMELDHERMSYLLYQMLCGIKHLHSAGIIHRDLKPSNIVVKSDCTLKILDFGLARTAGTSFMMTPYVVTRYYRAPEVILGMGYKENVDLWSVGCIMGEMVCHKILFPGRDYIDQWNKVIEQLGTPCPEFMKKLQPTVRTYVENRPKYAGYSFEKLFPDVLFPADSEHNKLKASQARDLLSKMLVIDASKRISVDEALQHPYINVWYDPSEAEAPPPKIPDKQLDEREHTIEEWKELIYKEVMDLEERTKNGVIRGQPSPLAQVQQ

Sequence of His-JNK3 (ref 14-501, Upstate) (P53779 other isoform, or with tags, fused parts or gaps): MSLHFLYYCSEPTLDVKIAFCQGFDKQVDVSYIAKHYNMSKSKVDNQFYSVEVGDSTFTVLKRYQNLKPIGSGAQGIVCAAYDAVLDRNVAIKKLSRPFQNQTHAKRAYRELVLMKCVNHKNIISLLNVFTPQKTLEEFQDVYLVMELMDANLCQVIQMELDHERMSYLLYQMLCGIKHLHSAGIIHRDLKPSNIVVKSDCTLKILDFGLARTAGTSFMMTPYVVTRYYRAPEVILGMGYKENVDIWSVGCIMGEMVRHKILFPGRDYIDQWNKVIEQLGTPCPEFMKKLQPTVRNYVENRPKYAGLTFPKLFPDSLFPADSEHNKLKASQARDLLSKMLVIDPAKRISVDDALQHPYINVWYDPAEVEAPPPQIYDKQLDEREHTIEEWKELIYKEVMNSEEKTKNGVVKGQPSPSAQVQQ

A word on the IC50: it is the concentration that gives 50% inhibition. Lower therefore signals greater potency. Regarding D-TAT-IB1, the 50% inhibitory concentration (IC50) in test [1] was determined as 1290 nM; in test [2] it was 802 nM; in test [3], 24400 nM.
